Results: US20140328841A1 (BRIGHAM AND WOMEN S HOSPITAL, published 2014)
Each block holds one molecule with its values, some of them ahead of it.

Assays:
mouse CEACAM1 [1] = target: T1, mouse CEACAM1 (mouse, UniProt P31809 35-521, limits assumed); assay: flow cytometry dot plot (x: mIgG1 CONTROL, y: FITC). Cells of the 5F4-treated mouse group, isotype control staining for the 5F4 panel above it.
T1 sequence (looked up): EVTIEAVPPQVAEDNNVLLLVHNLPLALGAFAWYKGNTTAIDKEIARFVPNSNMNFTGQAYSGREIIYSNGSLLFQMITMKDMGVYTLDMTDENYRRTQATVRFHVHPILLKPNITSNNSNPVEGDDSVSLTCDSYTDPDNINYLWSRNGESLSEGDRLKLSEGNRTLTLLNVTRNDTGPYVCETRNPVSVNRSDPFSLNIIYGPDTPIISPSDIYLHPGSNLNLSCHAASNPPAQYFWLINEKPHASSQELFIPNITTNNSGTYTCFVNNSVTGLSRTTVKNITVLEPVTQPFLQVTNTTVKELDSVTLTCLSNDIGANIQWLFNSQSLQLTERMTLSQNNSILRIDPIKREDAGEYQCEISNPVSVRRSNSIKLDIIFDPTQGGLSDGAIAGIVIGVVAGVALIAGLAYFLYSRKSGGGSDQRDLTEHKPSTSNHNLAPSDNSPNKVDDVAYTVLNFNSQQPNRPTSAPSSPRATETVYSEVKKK

human CEACAM1 (human) [2] = target: human CEACAM1 (human) (UniProt P13688); assay: flow cytometry dot plot (x: mIgG1 CONTROL, y: FITC). Cells of the MOPC-treated mouse group, isotype control staining for the 5F4 panel above it.
mouse CEACAM1 [3] = target: T1, mouse CEACAM1; assay: flow cytometry, 5F4 staining of lymph node cells of the 5F4-treated mouse group (mouse cells; per the legend no human CEACAM1+ cells present)
human CEACAM1 (human) [4] = target: human CEACAM1 (human) (UniProt P13688); assay: flow cytometry dot plot (x: hCEACAM1 (5F4), y: FITC). Per the legend, axillary lymph node cells of an MOPC-treated Rag2-/- mouse 2 weeks after s.c. AsPc-1 inoculation. Gated events spread from about 10^3 to above 10^4 on the x axis. The panel is marked *.

Sequence of human CEACAM1 (human) (P13688 35-526): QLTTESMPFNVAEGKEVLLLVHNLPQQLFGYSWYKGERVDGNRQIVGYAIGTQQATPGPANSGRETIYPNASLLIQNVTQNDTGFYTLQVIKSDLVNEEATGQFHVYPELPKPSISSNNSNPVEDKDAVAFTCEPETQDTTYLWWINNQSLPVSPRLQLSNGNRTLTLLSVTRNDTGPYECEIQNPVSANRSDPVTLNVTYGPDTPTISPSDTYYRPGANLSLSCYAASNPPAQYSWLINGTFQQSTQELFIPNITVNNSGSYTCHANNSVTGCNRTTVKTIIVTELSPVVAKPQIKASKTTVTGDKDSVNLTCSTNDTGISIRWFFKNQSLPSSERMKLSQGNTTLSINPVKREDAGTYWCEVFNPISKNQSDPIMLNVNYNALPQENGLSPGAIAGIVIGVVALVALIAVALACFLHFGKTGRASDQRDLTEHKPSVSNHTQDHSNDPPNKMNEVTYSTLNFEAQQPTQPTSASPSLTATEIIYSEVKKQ

number printed in the same gate of the dot plot (mouse CEACAM1 [1]): 1.27
number printed in the same gate of the dot plot (human CEACAM1 (human) [2]): 0.667
Molecule: mIgG1 CONTROL (antibody)

binding result (mouse CEACAM1 [3]): no binding
number printed in the hCEACAM1 (5F4)-positive gate of the dot plot (human CEACAM1 (human) [4]): 2.15
B1: 5F4 mouse anti-human CEACAM1 monoclonal antibody (hybridoma 5F4/2C6/2H3) (antibody, mouse IgG1, V domains shown)
VH: EVQLVESGGDLVKPGGSLKLACAASGFIFSSHGMSWVRQTPDKRLEWVATISSGGTYTYYPDSVKGRFTISRDNDKNTLYLQMNSLKSEDTAMYYCARHDFDYDAAWFAYWGQGTLVTVSA
VL: QIVLTQSPALMSASPGVKVTMTCSANSSVSYMYWYRQKPRSSPKPWIYLTSNLASGVPARFSGSGSGTSYSLTISSMEAEDAATYYCQQWSSNPPTFGSGTKLEIK
notes: also called 5F4 antibody; 5F4 monoclonal antibody
